Results as given in PMC7948952, “Structural basis for multifunctional roles of human Ints3 C-terminal domain” (The Journal of Biological Chemistry, 2020).

Target: Ints3-555-976 R788E/K789E (human, UniProt Q68E01-2 555-976, R788E;K789E)
Assay: EMSA; not reduced vs WT (WT itself weak); up to 200 uM; 20 mM Hepes pH 7.4, 100 mM NaCl, 1 mM MgCl2, 1 mg/ml BSA, 2 mM DTT, 5% glycerol; on ice 30 min; 7.5 nM probe; native 5% PAGE in 1X TBE
Conditions: protein: recombinant; chain copies: 2; label: 5' 32P; single strand

Sequence of Ints3-555-976 R788E/K789E (Q68E01 556-977 R789E/K790E): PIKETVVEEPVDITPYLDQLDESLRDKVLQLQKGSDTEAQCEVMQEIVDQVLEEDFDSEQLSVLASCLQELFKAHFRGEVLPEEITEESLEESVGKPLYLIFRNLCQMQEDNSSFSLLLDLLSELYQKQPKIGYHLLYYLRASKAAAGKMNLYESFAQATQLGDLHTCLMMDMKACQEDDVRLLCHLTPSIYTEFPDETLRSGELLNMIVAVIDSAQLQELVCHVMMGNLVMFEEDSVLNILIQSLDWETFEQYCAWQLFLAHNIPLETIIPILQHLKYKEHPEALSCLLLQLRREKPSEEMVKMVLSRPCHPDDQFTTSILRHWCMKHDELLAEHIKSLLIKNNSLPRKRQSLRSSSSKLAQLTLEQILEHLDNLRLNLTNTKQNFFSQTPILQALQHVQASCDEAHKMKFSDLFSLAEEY

B1: dT30 (ssDNA)
DNA: TTTTTTTTTTTTTTTTTTTTTTTTTTTTTT
binding result: binds
